Test [1] has as its target T1, human CD20 (human, UniProt P11836 1-297).
T1 sequence (looked up): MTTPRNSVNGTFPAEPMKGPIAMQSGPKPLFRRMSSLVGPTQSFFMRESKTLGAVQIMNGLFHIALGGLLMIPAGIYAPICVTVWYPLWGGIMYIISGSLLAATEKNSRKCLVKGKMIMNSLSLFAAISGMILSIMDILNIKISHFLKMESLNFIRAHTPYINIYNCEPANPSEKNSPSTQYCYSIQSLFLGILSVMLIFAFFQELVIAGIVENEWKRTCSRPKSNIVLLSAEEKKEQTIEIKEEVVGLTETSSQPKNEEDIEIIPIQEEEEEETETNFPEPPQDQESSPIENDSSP
In words: cell-based or functional assay.

The target in test [2] is T1, human CD20. In words: flow cytometry on Raji-CD47KO cells (CD20+CD47-). On the technique in general: Flow cytometry measures light scatter and fluorescence of single cells or particles in a stream.
The target in test [3] is T2, human CD47 (human, UniProt Q08722 19-323).
T2 construct: whole, on cells; Endogenous CD47 on tumor cell lines
In words: FACS competition on Jurkat cells; competitor 25 nM biotin-SIRPα-Fc, detected with FITC-streptavidin. As for the experimental part:
(§1) The mixture was cultured at RT for 30 minutes, and then incubated with Jurkat cells at RT for 1 hour. After washes, the cells was added with fluorescence labeled streptavidin (FITC-Strep) and then incubated at RT for 1 hour.

For test [4], the target named is T2, human CD47. Briefly: flow cytometry on Jurkat cells (CD20-CD47+).
In test [5] the target is T2, human CD47. Briefly: cell-based or functional assay.
Test [6] deals with T2, human CD47. In words: FACS competition on Jurkat cells against 25 nM labelled SIRPα-Fc. Number printed in the IC50 table although the Rituximab curve shows no inhibition (see non_binding). The table prints no unit, nM is taken from the concentration axis. As to the method:
as §1

B1: CD20mAb-SD1 (bispecific antibody, human IgG1, kappa)
heavy: not shown
light: QIVLSQSPAILSASPGEKVTMTCRASSSVSYIHWFQQKPGSSPKPWIYATSNLASGVPVRFSGSGSGTSYSLTISRVEAEDAATYYCQQWTSNPPTFGGGTKHELKRTVAAPSVFIFPPSDEQLKSGTASVVCLLNNFYPREAKVQWKVDNALQSGNSQESVTEQDSKDSTYSLSSTLTLSKADYEKHKVYACEVTHQGLSSPVTKSFNRGEC
notes: Four chains, two heavy and two light, joined by disulfide bonds; Expressed in CHO cells; also called recombinant bi-functional fusion protein; CD20Ab-SD1
Take B1: the “ADCC EC50, Raji target cells, NK92MI-CD16a effector cells” value (“ADCC EC50, Raji target cells” for short) in test [1] is 0.14 ng/mL. Besides, the “ADCC EC50, Raji-CD47KO target cells, NK92MI-CD16a effector cells” value (shortened to “ADCC EC50, Raji-CD47KO target cells”) in test [1] amounted to 0.14 ng/mL. Further, the “CDC EC50, Raji target cells, rabbit complement” value in test [1] stood at 11 nM. For the same molecule, the EC50 was found to be 0.08 nM in test [2], 476 nM in test [3] and 2.72 nM in test [4].

B2: SD1-CD20mAb (bispecific antibody, human IgG1, kappa)
heavy: not shown
light: B1 light
notes: Four chains, two heavy and two light, joined by disulfide bonds; Expressed in CHO cells; also called recombinant bi-functional fusion protein
Consider B2, for which, in test [1], the “ADCC EC50, Raji target cells” value came out at 0.15 ng/mL; the “ADCC EC50, Raji-CD47KO target cells” value is 0.1 ng/mL; the “CDC EC50, Raji target cells, rabbit complement” value was found to be 3.36 nM. The “phagocytosis of HL-60 cells by mouse macrophage cell line Ana-1, EC50” value in test [5] turned out to be 300 ng/mL. The molecule also displayed an EC50 in test [2] of 0.4 nM. Moreover, a half-maximal response in test [3] (EC50) required 19.7 nM. The midpoint of the response in test [4], the EC50, lay at 0.09 nM.

B3: Rituximab (antibody, V domains shown)
VH: QVQLQQPGAELVKPGASVKMSCKASGYTFTSYNMHWVKQTPGRGLEWIGAIYPGNGDTSYNQKFKGKATLTADKSSSTAYMQLSSLTSEDSAVYYCARSTYYGGDWYFNVWGAGTTVTVSA
VL: QIVLSQSPAILSASPGEKVTMTCRASSSVSYIHWFQQKPGSSPKPWIYATSNLASGVPVRFSGSGSGTSYSLTISRVEAEDAATYYCQQWTSNPPTFGGGTKLEIK
notes: Comparator antibody; also called Rituxan
On to B3, for which, in test [1], the “ADCC EC50, Raji target cells” value turned out to be 3.82 ng/mL and the “ADCC EC50, Raji-CD47KO target cells” value was found to be 1.13 ng/mL. The molecule further had a concentration for half-maximal inhibition (IC50) in test [6] of 7.19 nM. This molecule gave an EC50 in test [2] of 0.06 nM.

For orientation: EC50 means the midpoint of the concentration-response curve. The IC50 is the concentration at which inhibition is half-maximal. Low values mean greater potency in that assay, high ones weaker potency in that assay.

Values taken from patent US20200095339A1 (IMMUNEONCO BIOPHARMACEUTICALS SHANGHAI, published 2020).
